Each block holds one substance with its values, some of them ahead of it.
Tests used:
[1] = target: p60-Tumor Necrosis Factor Receptor Associated Kinase (p60TRAK); experiment: U937 lysate depleted with p13^suc1 -agarose or GST beads, supernatant precipitated with GST-p60Δ15, kinase assay with histone H1
[2] = target: p60-Tumor Necrosis Factor Receptor Associated Kinase (p60TRAK)
[3] = target: T1, p13^suc1 -agarose (UniProt P08463); experiment: U937 lysate depleted with p13^suc1 -agarose or GST beads, supernatant precipitated with GST-p60Δ8 or GST-p60Δ15, kinase assay with Rb^110
T1 sequence: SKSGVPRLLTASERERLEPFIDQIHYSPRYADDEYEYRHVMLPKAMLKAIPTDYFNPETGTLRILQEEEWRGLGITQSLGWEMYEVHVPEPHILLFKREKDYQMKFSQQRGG

[4] = target: GST-p60Δ4 (Homo sapiens (Human)) (UniProt P19438)
[5] = target: GST-p60Δ5 (Homo sapiens (Human)) (UniProt P19438)

Substance: p13^suc1 -agarose (from UniProt P08463)
depletion of p60TRAK activity [1]: 50%

Substance: p49^WEE1 (from UniProt P30291) (enzyme)
histone kinase activity of p60TRAK [2]: > 70%

Substance: p60-Tumor Necrosis Factor Receptor Associated Kinase (p60TRAK)
reduction of Rb^110 phosphorylation by p60TRAK after depletion [3]: phosphorylation of the retinoblastoma protein (Rb^110) by p60TRAK after depletion with p13^suc1 -agarose was reduced by greater than 60%

phosphorylation in an in vitro kinase assay [4]: 50%
phosphorylation in an in vitro kinase assay [5]: 50%
Substance: p60-Tumor Necrosis Factor Receptor Associated Kinase (p60TRAK) (enzyme)

From patent US5856161
